In article PMC5923319 (Toxins, 2018):

Assays:
[1] = target: HcA1 (receptor binding domain of BoNT/A1), HA- and His6-tagged, for binding studies (Clostridium botulinum, UniProt A2I2U2 876-1296); assay: pull-down; settings: both partners purified
[2] = target: HcA2 (receptor binding domain of BoNT/A2), HA- and His6-tagged, for binding studies (Clostridium botulinum A2 Kyoto-F, UniProt Q45894 874-1296); assay: […]; Hepes buffer (50 mM Hepes pH 7.5, 150 mM NaCl); […]; settings: both partners purified

Binder | binding result [1] | binding result [2]
GST-fused recombinant human SV2C-L4 (domain or fragment, UniProt Q496J9 454-580, looked up, also called non-glycosylated SV2C) FPDVIKPLQSDEYALLTRNVERDKYANFTINFTMENQIHTGMEYDNGRFIGVKFKSVTFKDSVFKSCTFEDVTSVNTYFKNCTFIDTVFDNTDFEPYKFIDSEFKNCSFFHNKTGCQITFDDDYSAY | binds | binds
GST-fused recombinant human SV2B-L4 (domain or fragment, UniProt Q7L1I2 410-536, looked up, also called non-glycosylated SV2B) WFPDMIRYFQDEEYKSKMKVFFGEHVYGATINFTMENQIHQHGKLVNDKFTRMYFKHVLFEDTFFDECYFEDVTSTDTYFKNCTIESTIFYNTDLYEHKFINCRFINSTFLEQKEGCHMDLEQDNDF | binds | –
GST-fused recombinant human SV2A-L4 (domain or fragment, UniProt Q7L0J3 468-596, looked up, also called non-glycosylated SV2A) FPDMIRHLQAVDYASRTKVFPGERVEHVTFNFTLENQIHRGGQYFNDKFIGLRLKSVSFEDSLFEECYFEDVTSSNTFFRNCTFINTVFYNTDLFEYKFVNSRLINSTFLHNKEGCPLDVTGTGEGAYM | binds | –
